Measurements published in the supplement of paper PMC9428881.
± gives the standard error.

assay: background-corrected fluorescence of 3'-dye-labeled ssDNA relative to brightest sequence (3'-GCGCG) (fraction); higher = brighter dye fluorescence (less quenching); conditions: dye: Cy5 (3' terminal)
Procedure, shortened: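 Each of 1024 permuted pentamers was synthesized as single-stranded DNA on glass slides by light-directed phosphoramidite chemistry, with a 3' Cy3 or Cy5 dye alongside. Arrays were scanned at 532 or 635 nm before and after overnight deprotection with ethylenediamine/ethanol. Values average 10 features per array across at least 3 syntheses. The fluorescence readout, with unlabeled-oligo background removed, is given relative to the brightest sequence.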

| Sequence | background-corrected fluorescence |
| --- | --- |
| TTTTTTGATCATCATCATGATTTTTTTTTTTTTTTCGGGC | 0.487 ± 0.024 |
| TTTTTTGATCATCATCATGCTTTTTTTTTTTTTTTCGGGA [AGGGC] | 0.715 ± 0.052 |
| TTTTTTGATCATCATGAGCATTTTTTTTTTTTTTTCGGCT | 0.431 ± 0.021 |
| TTTTTTGATCATCATGATCATTTTTTTTTTTTTTTCGGCG [GCGGC] | 0.611 ± 0.053 |
| TTTTTTGATCATCATGATGATTTTTTTTTTTTTTTCGGCC [CCGGC] | 0.364 ± 0.027 |
| TTTTTTGATCATCATGATGCTTTTTTTTTTTTTTTCGGCA [ACGGC] | 0.493 ± 0.034 |
| TTTTTTGATCATCATGCGCATTTTTTTTTTTTTTTCGGAT [TAGGC] | 0.472 ± 0.033 |
| TTTTTTGATCATCATGCTCATTTTTTTTTTTTTTTCGGAG [GAGGC] | 0.487 ± 0.024 |
| TTTTTTGATCATCATGCTGATTTTTTTTTTTTTTTCGGAC [CAGGC] | 0.389 ± 0.034 |
| TTTTTTGATCATCATGCTGCTTTTTTTTTTTTTTTCGGAA [AAGGC] | 0.548 ± 0.058 |
| TTTTTTGATCATGAGCAGCATTTTTTTTTTTTTTTCGCTT | 0.409 ± 0.047 |
| TTTTTTGATCATGAGCATCATTTTTTTTTTTTTTTCGCTG [GTCGC] | 0.423 ± 0.043 |
| TTTTTTGATCATGAGCATGATTTTTTTTTTTTTTTCGCTC [CTCGC] | 0.318 ± 0.024 |
| TTTTTTGATCATGAGCATGCTTTTTTTTTTTTTTTCGCTA [ATCGC] | 0.399 ± 0.027 |
| TTTTTTGATCATGATCAGCATTTTTTTTTTTTTTTCGCGT [TGCGC] | 0.697 ± 0.048 |
| TTTTTTGATCATGATCATCATTTTTTTTTTTTTTTCGCGG [GGCGC] | 0.793 ± 0.047 |
| TTTTTTGATCATGATCATGATTTTTTTTTTTTTTTCGCGC | 0.66 ± 0.052 |
| TTTTTTGATCATGATCATGCTTTTTTTTTTTTTTTCGCGA [AGCGC] | 0.792 ± 0.034 |
| TTTTTTGATCATGATGAGCATTTTTTTTTTTTTTTCGCCT [TCCGC] | 0.369 ± 0.03 |
| TTTTTTGATCATGATGATCATTTTTTTTTTTTTTTCGCCG [GCCGC] | 0.506 ± 0.046 |
| TTTTTTGATCATGATGATGATTTTTTTTTTTTTTTCGCCC [CCCGC] | 0.308 ± 0.055 |
| TTTTTTGATCATGATGATGCTTTTTTTTTTTTTTTCGCCA [ACCGC] | 0.423 ± 0.051 |
| TTTTTTGATCATGATGCGCATTTTTTTTTTTTTTTCGCAT [TACGC] | 0.395 ± 0.021 |

| Sequence | background-corrected fluorescence |
| --- | --- |
| TTTTTTGATCATGATGCTCATTTTTTTTTTTTTTTCGCAG [GACGC] | 0.446 ± 0.029 |
| TTTTTTGATCATGATGCTGATTTTTTTTTTTTTTTCGCAC [CACGC] | 0.342 ± 0.06 |
| TTTTTTGATCATGATGCTGCTTTTTTTTTTTTTTTCGCAA [AACGC] | 0.443 ± 0.035 |
| TTTTTTGATCATGCGCAGCATTTTTTTTTTTTTTTCGATT [TTAGC] | 0.404 ± 0.025 |
| TTTTTTGATCATGCGCATCATTTTTTTTTTTTTTTCGATG [GTAGC] | 0.438 ± 0.024 |
| TTTTTTGATCATGCGCATGATTTTTTTTTTTTTTTCGATC [CTAGC] | 0.354 ± 0.027 |
| TTTTTTGATCATGCGCATGCTTTTTTTTTTTTTTTCGATA [ATAGC] | 0.427 ± 0.025 |
| TTTTTTGATCATGCTCAGCATTTTTTTTTTTTTTTCGAGT [TGAGC] | 0.477 ± 0.058 |
| TTTTTTGATCATGCTCATCATTTTTTTTTTTTTTTCGAGG [GGAGC] | 0.534 ± 0.035 |
| TTTTTTGATCATGCTCATGATTTTTTTTTTTTTTTCGAGC | 0.425 ± 0.035 |
| TTTTTTGATCATGCTCATGCTTTTTTTTTTTTTTTCGAGA [AGAGC] | 0.53 ± 0.037 |
| TTTTTTGATCATGCTGAGCATTTTTTTTTTTTTTTCGACT [TCAGC] | 0.363 ± 0.028 |
| TTTTTTGATCATGCTGATCATTTTTTTTTTTTTTTCGACG [GCAGC] | 0.491 ± 0.024 |
| TTTTTTGATCATGCTGATGATTTTTTTTTTTTTTTCGACC [CCAGC] | 0.324 ± 0.03 |
| TTTTTTGATCATGCTGATGCTTTTTTTTTTTTTTTCGACA [ACAGC] | 0.429 ± 0.053 |
| TTTTTTGATCATGCTGCGCATTTTTTTTTTTTTTTCGAAT [TAAGC] | 0.402 ± 0.026 |
| TTTTTTGATCATGCTGCTCATTTTTTTTTTTTTTTCGAAG [GAAGC] | 0.463 ± 0.021 |
| TTTTTTGATCATGCTGCTGATTTTTTTTTTTTTTTCGAAC [CAAGC] | 0.366 ± 0.022 |
| TTTTTTGATCATGCTGCTGCTTTTTTTTTTTTTTTCGAAA [AAAGC] | 0.475 ± 0.057 |
| TTTTTTGATGAGCAGCAGCATTTTTTTTTTTTTTTCCTTT | 0.347 ± 0.023 |
| TTTTTTGATGAGCAGCATCATTTTTTTTTTTTTTTCCTTG [GTTCC] | 0.378 ± 0.025 |
| TTTTTTGATGAGCAGCATGATTTTTTTTTTTTTTTCCTTC [CTTCC] | 0.288 ± 0.03 |
| TTTTTTGATGAGCAGCATGCTTTTTTTTTTTTTTTCCTTA [ATTCC] | 0.369 ± 0.029 |

| Sequence | background-corrected fluorescence |
| --- | --- |
| TTTTTTGATGAGCATCAGCATTTTTTTTTTTTTTTCCTGT [TGTCC] | 0.459 ± 0.038 |
| TTTTTTGATGAGCATCATCATTTTTTTTTTTTTTTCCTGG [GGTCC] | 0.47 ± 0.054 |
| TTTTTTGATGAGCATCATGATTTTTTTTTTTTTTTCCTGC [CGTCC] | 0.394 ± 0.032 |
| TTTTTTGATGAGCATCATGCTTTTTTTTTTTTTTTCCTGA [AGTCC] | 0.499 ± 0.086 |
| TTTTTTGATGAGCATGAGCATTTTTTTTTTTTTTTCCTCT [TCTCC] | 0.312 ± 0.026 |
| TTTTTTGATGAGCATGATCATTTTTTTTTTTTTTTCCTCG [GCTCC] | 0.393 ± 0.057 |
| TTTTTTGATGAGCATGATGATTTTTTTTTTTTTTTCCTCC | 0.273 ± 0.021 |
| TTTTTTGATGAGCATGATGCTTTTTTTTTTTTTTTCCTCA [ACTCC] | 0.377 ± 0.042 |
| TTTTTTGATGAGCATGCGCATTTTTTTTTTTTTTTCCTAT [TATCC] | 0.361 ± 0.028 |
| TTTTTTGATGAGCATGCTCATTTTTTTTTTTTTTTCCTAG [GATCC] | 0.414 ± 0.023 |
| TTTTTTGATGAGCATGCTGATTTTTTTTTTTTTTTCCTAC [CATCC] | 0.306 ± 0.042 |
| TTTTTTGATGAGCATGCTGCTTTTTTTTTTTTTTTCCTAA [AATCC] | 0.432 ± 0.031 |
| TTTTTTGATGATCAGCAGCATTTTTTTTTTTTTTTCCGTT [TTGCC] | 0.446 ± 0.059 |
| TTTTTTGATGATCAGCATCATTTTTTTTTTTTTTTCCGTG [GTGCC] | 0.435 ± 0.029 |
| TTTTTTGATGATCAGCATGATTTTTTTTTTTTTTTCCGTC [CTGCC] | 0.345 ± 0.018 |
| TTTTTTGATGATCAGCATGCTTTTTTTTTTTTTTTCCGTA [ATGCC] | 0.436 ± 0.028 |
| TTTTTTGATGATCATCAGCATTTTTTTTTTTTTTTCCGGT [TGGCC] | 0.624 ± 0.064 |
| TTTTTTGATGATCATCATCATTTTTTTTTTTTTTTCCGGG [GGGCC] | 0.655 ± 0.076 |
| TTTTTTGATGATCATCATGATTTTTTTTTTTTTTTCCGGC [CGGCC] | 0.511 ± 0.041 |
| TTTTTTGATGATCATCATGCTTTTTTTTTTTTTTTCCGGA [AGGCC] | 0.714 ± 0.045 |
| TTTTTTGATGATCATGAGCATTTTTTTTTTTTTTTCCGCT [TCGCC] | 0.428 ± 0.034 |
| TTTTTTGATGATCATGATCATTTTTTTTTTTTTTTCCGCG [GCGCC] | 0.944 ± 0.034 |
